Consider 4 molecules from paper PMC8213707, “Structural basis for the ARF GAP activity and specificity of the C9orf72 complex” (Nature Communications, 2021).

B1: C9orf72 (subunit of the C9orf72:ARF1-SMCR8:WDR41 complex) (natural protein)
chain: MSTLCPPPSPAVAKTEIALSGKSPLLAATFAYWDNILGPRVRHIWAPKTEQVLLSDGEITFLANHTLNGEILRNAESGAIDVKFFVLSEKGVIIVSLIFDGNWNGDRSTYGLSIILPQTELSFYLPLHRVCVDRLTHIIRKGRIWMHKERQENVQKIILEGTERMEDQGQSIIPMLTGEVIPVMELLSSMKSHSVPEEIDIADTVLNDDDIGDSCHEGFLLNAISSHLQTCGCSVVVGSSAEKVNKIVRTLCLFLTPAERKCSRLCEAESSFKYESGLFVQGLLKDSTGSFVLPFRQVMYAPYPTTHIDVDVNTVKQMPPCHEHIYNQRRYMRSELTAFWRATSEEDMAQDTIIYTDESFTPDLNIFQDVLHRDTLVKAFLDQVFQLKPGLSLRSTFLAQFLLVLHRKALTLIKYIEDDTQKGKKPFKSLRNLKIDLDLTAEGDLNIIMALAEKIKPGLHSFIFGRPFYTSVQERDVLMTF
notes: C9orf72; not shown: GST, N-terminal, cleaved

Common to all, as to details: both partners purified
Test [1] concerns the target T1, SMCR8 of the STREP-STREP-FLAG-ARF1-SMCR8 fusion (UniProt Q8TEV9 1-937).
T1 construct: SMCR8; In the structure its N-terminus is joined to the C terminus of ARF1 E17-K181, which carries the N-terminal STREP-STREP-FLAG tag, on one chain; also called Smith-Magenis chromosome regions 8
T1 sequence: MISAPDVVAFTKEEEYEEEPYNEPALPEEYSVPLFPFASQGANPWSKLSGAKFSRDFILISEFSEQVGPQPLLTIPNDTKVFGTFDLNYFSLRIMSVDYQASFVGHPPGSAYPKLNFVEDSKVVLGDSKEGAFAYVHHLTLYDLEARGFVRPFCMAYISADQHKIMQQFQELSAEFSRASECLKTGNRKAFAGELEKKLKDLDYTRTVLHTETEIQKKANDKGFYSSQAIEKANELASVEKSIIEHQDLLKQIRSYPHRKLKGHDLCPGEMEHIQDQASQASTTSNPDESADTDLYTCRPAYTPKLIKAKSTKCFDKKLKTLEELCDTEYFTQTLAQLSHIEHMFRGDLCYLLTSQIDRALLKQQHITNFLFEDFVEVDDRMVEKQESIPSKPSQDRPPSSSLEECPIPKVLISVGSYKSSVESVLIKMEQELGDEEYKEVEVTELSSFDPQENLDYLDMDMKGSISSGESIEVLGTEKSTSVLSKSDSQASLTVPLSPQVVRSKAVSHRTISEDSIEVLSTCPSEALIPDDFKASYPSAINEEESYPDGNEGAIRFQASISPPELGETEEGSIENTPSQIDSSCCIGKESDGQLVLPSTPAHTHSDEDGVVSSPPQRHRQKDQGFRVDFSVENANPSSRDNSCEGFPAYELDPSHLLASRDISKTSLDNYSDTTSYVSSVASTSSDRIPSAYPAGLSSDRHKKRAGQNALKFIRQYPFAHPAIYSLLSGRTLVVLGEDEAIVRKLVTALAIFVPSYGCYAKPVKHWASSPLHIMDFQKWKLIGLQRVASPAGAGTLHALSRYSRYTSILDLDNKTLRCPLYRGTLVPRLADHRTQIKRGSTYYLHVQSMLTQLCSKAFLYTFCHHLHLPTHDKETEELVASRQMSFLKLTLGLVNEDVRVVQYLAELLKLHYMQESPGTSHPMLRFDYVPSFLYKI
Nature of the test: cryo-EM structure; chimeric C9orf72:ARF1-SMCR8:WDR41 complex, GDP-bound, incubated with BeF3^- overnight; 20 mM HEPES pH 7.4, 200 mM NaCl, 2 mM MgCl2, 0.5 mM TCEP; 3.9 Å reconstruction.

Test [2] deals with T2, C9orf72:SMCR8:WDR41 complex (wild type) (UniProt Q96LT7 1-481; Q8TEV9 1-937; Q9HAD4 1-459).
T2 construct: C9orf72; SMCR8 (Smith-Magenis chromosome regions 8); WDR41 (WD repeat-containing protein 41), cloned without a tag; The methods describe the purification for the fusion complex; also called C9orf72 complex; GAP complex; not shown: GST, N-terminal, cleaved; copies: + +
Nature of the test: SEC; 15 μM C9orf72:SMCR8:WDR41 incubated with 15-fold ARF1^Q71L in 500 μl overnight, injected into Superose 6 Increase 10/300.

In test [3] the target is B1. Description: cryo-EM structure; chimeric C9orf72:ARF1-SMCR8:WDR41 complex, GDP-bound, incubated with BeF3^- overnight; 20 mM HEPES pH 7.4, 200 mM NaCl, 2 mM MgCl2, 0.5 mM TCEP; 3.9 Å reconstruction.

Take B1: the binding result in test [1] is given as “binds”.

B2: ARF1^Q71L (residues E17-K181), GTP-locked mutant (domain or fragment)
chain: not shown
notes: ARF1, residues E17-K181 (N-terminal myristoylated amphipathic helix removed); source: E. coli BL21 DE3 star, purified (Ni-NTA, Superdex 75)
As for B2, in test [2], the binding result is on record as “binds”.

B3: ARF1 (residues E17-K181) of the STREP-STREP-FLAG-ARF1-SMCR8 fusion (domain or fragment)
chain: not shown
notes: ARF1, residues E17-K181; In the structure this ARF1 is joined by its C terminus to the N-terminus of SMCR8 on one chain (STREP-STREP-FLAG-ARF1-SMCR8, inserted by KpnI sites); also called ARF1-GDP-BeF3^-
For the molecule B3, the binding result in test [1] and in test [3] was “binds” each time.

B4: WDR41 (subunit of the C9orf72:ARF1-SMCR8:WDR41 complex) (natural protein)
chain: MLRWLIGGGREPQGLAEKSPLQTIGEEQTQNPYTELLVLKAHHDIVRFLVQLDDYRFASAGDDGIVVVWNAQTGEKLLELNGHTQKITAIITFPSLESCEEKNQLILTASADRTVIVWDGDTTRQVQRISCFQSTVKCLTVLQRLDVWLSGGNDLCVWNRKLDLLCKTSHLSDTGISALVEIPKNCVVAAVGKELIIFRLVAPTEGSLEWDILEVKRLLDHQDNILSLINVNDLSFVTGSHVGELIIWDALDWTMQAYERNFWDPSPQLDTQQEIKLCQKSNDISIHHFTCDEENVFAAVGRGLYVYSLQMKRVIACQKTAHDSNVLHVARLPNRQLISCSEDGSVRIWELREKQQLAAEPVPTGFFNMWGFGRVSKQASQPVKKQQENATSCSLELIGDLIGHSSSVEMFLYFEDHGLVTCSADHLIILWKNGERESGLRSLRLFQKLEENGDLYLAV
notes: WDR41, cloned without a tag; also called WD repeat-containing protein 41
With B4, the binding result in test [1] is listed as “binds”.
